In article PMC7027792, “Phenylalanine meta‐Hydroxylase: A Single Residue Mediates Mechanistic Control of Aromatic Amino Acid Hydroxylation” (Chembiochem, 2019):

Legend:
[1] = molecular target: T1, Phe3H (phenylalanine 3-hydroxylase) (Streptomyces coeruleorubidus, UniProt F5BFC8); assay: steady-state inhibition kinetics of hydroxylation; type: biochemical
T1 construct: gene pacX; purified Phe3H
Source text: steady-state inhibition kinetics of hydroxylation on […]

purified protein [2] = substrate: NC(Cc1ccccc1F)C(=O)O; assay: purified protein; type: biochemical, Streptomyces coeruleorubidus; conditions: fixed 6MPH4 cofactor, racemic substrate, pH 8, 28 °C
purified protein [3] = substrate: NC(Cc1ccc(F)cc1)C(=O)O; assay: purified protein; type: biochemical, Streptomyces coeruleorubidus; conditions: fixed 6MPH4 cofactor, racemic substrate, pH 8, 28 °C
purified protein [4] = substrate: CC1Nc2nc(N)[nH]c(=O)c2NC1C; assay: purified protein; type: biochemical, Streptomyces coeruleorubidus; conditions: pterin varied, fixed L-Phe, pH 8, 28 °C, varied: cofactor
purified protein [5] = substrate: N[C@@H](Cc1ccccc1)C(=O)O; assay: purified protein; type: biochemical, Streptomyces coeruleorubidus
[6] = fixed 6MPH4 cofactor, labelled compound, pH 8, 28 °C
[7] = fixed 6MPH4 cofactor, pH 8, 28 °C
[8] = pterin cofactor (6MPH4 for wild type), labelled compound
[9] = pterin cofactor (6MPH4 for wild type), optimised assay conditions

Molecule: NC(Cc1cccc(F)c1)C(=O)O (racemic) [3F‐Phe]
- Ki [1]: 800 µM

B1: Phe3H (phenylalanine 3-hydroxylase) (Streptomyces coeruleorubidus) (protein)
chain: MQGPHAQMTDAAYEIRRSEIAALSTDLAPEDPIPVVEYTEWEHEVWRTVCVDLTARHRTDAAAEYLESAEQLAVPLDHVPQLRDVSGRLGSISGFTFQSAPALVPLREFCGGLANSVFHSTQYLRHPRSPFYTEDPDLLHDLVGHGNVLASDRFARLYRLAGNAAARVHSTEALQFIGKVFWFTLECGVVRERGERKAYGATLVSSYGELDHFRSADFRPLDIKSLADVEYDISTYQPILFEADSMDEVEDTVGSFWDTCDDDSIAALLGGTSRSVTPH
notes: purified Phe3H
- Km (purified protein [2]): 1900 ± 100 µM
- kcat (purified protein [2]): 0.167 ± 0.00333 s⁻¹
- kcat/Km (purified protein [2]): 88.3 ± 2 M⁻¹ s⁻¹
- Km (purified protein [3]): 230 ± 60 µM
- kcat (purified protein [3]): 0.233 ± 0.00833 s⁻¹
- kcat/Km (purified protein [3]): 1050 ± 107 M⁻¹ s⁻¹
- Km (purified protein [4]): 98 ± 10 µM
- kcat (purified protein [4]): 1.3 ± 0.05 s⁻¹
- kcat/Km (purified protein [4]): 13300 ± 650 M⁻¹ s⁻¹
- Km (purified protein [5]; [6]): 540 ± 70 µM
- kcat (purified protein [5]; [6]): 0.567 ± 0.0167 s⁻¹
- kcat/Km (purified protein [5]; [6]): 1050 ± 48.3 M⁻¹ s⁻¹
- Km (purified protein [5]; [7]): 400 ± 60 µM
- kcat (purified protein [5]; [7]): 0.633 ± 0.0333 s⁻¹
- kcat/Km (purified protein [5]; [7]): 1580 ± 118 M⁻¹ s⁻¹

B2: Phe3H (phenylalanine 3-hydroxylase) (Streptomyces coeruleorubidus; C187A) (protein)
chain: MQGPHAQMTDAAYEIRRSEIAALSTDLAPEDPIPVVEYTEWEHEVWRTVCVDLTARHRTDAAAEYLESAEQLAVPLDHVPQLRDVSGRLGSISGFTFQSAPALVPLREFCGGLANSVFHSTQYLRHPRSPFYTEDPDLLHDLVGHGNVLASDRFARLYRLAGNAAARVHSTEALQFIGKVFWFTLEAGVVRERGERKAYGATLVSSYGELDHFRSADFRPLDIKSLADVEYDISTYQPILFEADSMDEVEDTVGSFWDTCDDDSIAALLGGTSRSVTPH
notes: purified Phe3H
- Km (purified protein [5]; [8]): 130 ± 30 µM
- kcat (purified protein [5]; [8]): 0.217 ± 0.00667 s⁻¹
- Km (purified protein [5]; [9]): 100 ± 10 µM
- kcat (purified protein [5]; [9]): 0.283 ± 0.005 s⁻¹

B3: Phe3H (phenylalanine 3-hydroxylase) (Streptomyces coeruleorubidus; T202S) (protein)
chain: MQGPHAQMTDAAYEIRRSEIAALSTDLAPEDPIPVVEYTEWEHEVWRTVCVDLTARHRTDAAAEYLESAEQLAVPLDHVPQLRDVSGRLGSISGFTFQSAPALVPLREFCGGLANSVFHSTQYLRHPRSPFYTEDPDLLHDLVGHGNVLASDRFARLYRLAGNAAARVHSTEALQFIGKVFWFTLECGVVRERGERKAYGASLVSSYGELDHFRSADFRPLDIKSLADVEYDISTYQPILFEADSMDEVEDTVGSFWDTCDDDSIAALLGGTSRSVTPH
notes: purified Phe3H
- Km (purified protein [5]; [8]): 400 ± 300 µM
- kcat (purified protein [5]; [8]): 0.217 ± 0.0667 s⁻¹
- Km (purified protein [5]; [9]): 500 ± 200 µM
- kcat (purified protein [5]; [9]): 0.433 ± 0.0833 s⁻¹
